One substance from PMC6607583 can be followed below.

Test [1] concerns the target HIV-1 NL4-3 Nef-FTS Mut2 (EEEE-PxxP to AAAA-AxxA) (HIV-1 (NL4-3 strain)) (UniProt P03406). Put plainly: pull-down; HeLa cells transiently transfected with FTS-tagged bait, cross-linked with 1 mM DSP (4 °C, 6 h), lysed in 50 mM Tris-HCl pH 7.4, 300 mM NaCl, 5 mM EDTA, 0.5% NP-40; bait isolated on Strep-Tactin resin overnight at 4 °C; endogenous prey detected by immunoblotting.

In test [2] the target is HIV-1 NL4-3 Nef-FTS Mut1 (WL-EEEE to AA-AAAA) (HIV-1 (NL4-3 strain)) (UniProt P03406). The description is as above.

With “autophagy-related 9A (ATG9A) protein, endogenous in HeLa (from UniProt Q7Z3C6 1-839) (natural protein)”, the Nef-ATG9A pulldown relative to WT Nef in test [1] and in test [2] was 10 % of WT Nef each time.
